Laboratory results: publication PMC9938351
pKd: −log10 of the molar value.

Experiments:
[1] = target: SARS-CoV-2 ubiquitin-like domain 1 (Ubl1) of Nsp3 (residues 1–111) (SARS-CoV-2); experiment: dynamic light scattering
[2] = target: SARS-CoV-2 ubiquitin-like domain 1 (Ubl1) of Nsp3 (residues 1–111) (SARS-CoV-2); experiment: cross-linking
[3] = target: SARS-CoV-2 nucleocapsid (N) protein (residues 1–419) (SARS-CoV-2) (UniProt P0DTC9); experiment: ITC

| Substance | stoichiometry N [1] [NTD per Ubl1] | stoichiometry N [2] | pKd [3] | dH [3] [kcal/mol] | stoichiometry N [3] |
| --- | --- | --- | --- | --- | --- |
| SARS-CoV-2 N protein N-terminal domain (NTD, residues 47–174) (from UniProt P0DTC9 47-174) (domain or fragment) | 0.5 |  |  |  |  |
| SARS-CoV-2 ubiquitin-like domain 1 (Ubl1) of Nsp3 (residues 1–111) (domain or fragment) |  | 2 | 6.10 | -14.9 | 1.19 |
